# Patent JP2022028645A (dated 2022)
# Changes are numbered by the printed parent chain. Names and notes keep the numbering of the source.
# B1: EGFRvIII TCB CD3 opt (EGFRvIII binder P063.056 and optimized CD3 binder, 2+1 IgG CrossFab inverted) (bispecific antibody)
# heavy 1: not shown
# heavy 2: EVQLVQSGAEVKKPGESLKISCKGSGYSFDSYWIAWVRQMPGKGLEWMGVIHPYDSDTRYSPSFQGQVTISADKSISTAYLQWSSLKASDTAMYYCARVSRSSYAFDYWGQGTLVTVSSASTKGPSVFPLAPSSKSTSGGTAALGCLVEDYFPEPVTVSWNSGALTSGVHTFPAVLQSSGLYSLSSVVTVPSSSLGTQTYICNVNHKPSNTKVDEKVEPKSCDKTHTCPPCPAPEAAGGPSVFLFPPKPKDTLMISRTPEVTCVVVDVSHEDPEVKFNWYVDGVEVHNAKTKPREEQYNSTYRVVSVLTVLHQDWLNGKEYKCKVSNKALGAPIEKTISKAKGQPREPQVCTLPPSRDELTKNQVSLSCAVKGFYPSDIAVEWESNGQPENNYKTTPPVLDSDGSFFLVSKLTVDKSRWQQGNVFSCSVMHEALHNHYTQKSLSLSP
# light 1: not shown
# light 2: EVQLLESGGGLVQPGGSLRLSCAASGFQFSSYAMNWVRQAPGKGLEWVSRIRSKYNNYATYYADSVKGRFTISRDDSKNTLYLQMNSLRAEDTAVYYCVRHTTFPSSYVSYYGYWGQGTLVTVSSASVAAPSVFIFPPSDEQLKSGTASVVCLLNNFYPREAKVQWKVDNALQSGNSQESVTEQDSKDSTYSLSSTLTLSKADYEKHKVYACEVTHQGLSSPVTKSFNRGEC
# notes: Chain roles inferred as for TYRP1 TCB; also called EGFRvIII TCB; P063.056 EGFRvIII TCB with CD3opt
# B2: TYRP1 TCB CD3 opt (T cell bispecific antibody to CD3 and TYRP1 with optimized CD3 binder, 2+1 IgG CrossFab inverted, charge modifications, PGLALA) (bispecific antibody)
# heavy 1: not shown
# heavy 2: QVQLVQSGAEVKKPGASVKVSCKASGFNIKDYFLHWVRQAPGQGLEWMGWINPDNGNTVYAQKFQGRVTMTADTSTSTVYMELSSLRSEDTAVYYCTRRDYTYEKAALDYWGQGTLVTVSSASTKGPSVFPLAPSSKSTSGGTAALGCLVEDYFPEPVTVSWNSGALTSGVHTFPAVLQSSGLYSLSSVVTVPSSSLGTQTYICNVNHKPSNTKVDEKVEPKSCDKTHTCPPCPAPEAAGGPSVFLFPPKPKDTLMISRTPEVTCVVVDVSHEDPEVKFNWYVDGVEVHNAKTKPREEQYNSTYRVVSVLTVLHQDWLNGKEYKCKVSNKALGAPIEKTISKAKGQPREPQVCTLPPSRDELTKNQVSLSCAVKGFYPSDIAVEWESNGQPENNYKTTPPVLDSDGSFFLVSKLTVDKSRWQQGNVFSCSVMHEALHNHYTQKSLSLSP
# light 1: DIQMTQSPSSLSASVGDRVTITCRASGNIYNYLAWYQQKPGKVPKLLIYDAKTLADGVPSRFSGSGSGTDFTLTISSLQPEDVATYYCQHFWSLPFTFGQGTKLEIKRTVAAPSVFIFPPSDRKLKSGTASVVCLLNNFYPREAKVQWKVDNALQSGNSQESVTEQDSKDSTYSLSSTLTLSKADYEKHKVYACEVTHQGLSSPVTKSFNRGEC
# light 2: B1 light 2
# notes: also called TYRP1 TCB; TYRP-1 TCB
# B3: EGFRvIII TCB CD3 orig (EGFRvIII binder P063.056 and original CD3 binder, 2+1 IgG CrossFab inverted) (bispecific antibody)
# heavy 1: not shown
# heavy 2: B1 heavy 2
# light 1: not shown
# light 2: B1 light 2 with Q28T, S31T, T102G, T103N, P105G, S106N, Y111W, Y112F, G113A
# notes: chain roles inferred; also called P063.056 EGFRvIII TCB with CD3orig
# B4: TYRP1 TCB CD3 orig (T cell bispecific antibody to CD3 and TYRP1 with original CD3 binder, 2+1 IgG CrossFab inverted) (bispecific antibody)
# heavy 1: not shown
# heavy 2: B2 heavy 2
# light 1: B2 light 1
# light 2: B1 light 2 with Q28T, S31T, T102G, T103N, P105G, S106N, Y111W, Y112F, G113A
# notes: chain roles inferred as for the CD3opt molecule
# B5: TYRP1 Fab断片 (Fab fragment of the humanized TA99-derived TYRP1 binder, made by plasmin digestion of the corresponding antibody) (Fab, V domains shown)
# VH: QVQLVQSGAEVKKPGASVKVSCKASGFNIKDYFLHWVRQAPGQGLEWMGWINPDNGNTVYAQKFQGRVTMTADTSTSTVYMELSSLRSEDTAVYYCTRRDYTYEKAALDYWGQGTLVTVSS
# VL: DIQMTQSPSSLSASVGDRVTITCRASGNIYNYLAWYQQKPGKVPKLLIYDAKTLADGVPSRFSGSGSGTDFTLTISSLQPEDVATYYCQHFWSLPFTFGQGTKLEIK
# notes: also called TYRP1 Fab
# B6: EGFRvIII IgG PGLALA P056.021 (antibody, human IgG1, V domains shown)
# VH: EVQLVQSGAEVKKPGESLKISCKGSGYSFDSYWIAWVRQMPGKGLEWMGVIHPYDSDTRYSPSFQGQVTISADKSISTAYLQWSSLKASDTAMYYCARVSRSSYAFDYWGQGTLVTVSS
# VL: not shown
# notes: Human IgG1 with P329G L234A L235A; also called P056.021
# B7: EGFRvIII IgG PGLALA P063.056 (affinity-matured EGFRvIII binder) (antibody, human IgG1, V domains shown)
# VH: B6 VH
# VL: not shown
# notes: Human IgG1 PGLALA; also called P063.056
# B8: EGFRvIII TCB P056.021 (with CD3orig, 2+1 IgG CrossFab inverted) (bispecific antibody, V domains shown)
# VH 1: B6 VH
# VL 1: not shown
# VH 2: not shown
# VL 2: QAVVTQEPSLTVSPGGTVTLTCGSSTGAVTTSNYANWVQEKPGQAFRGLIGGTNKRAPGTPARFSGSLLGGKAALTLSGAQPEDEAEYYCALWYSNLWVFGGGTKLTVL
# notes: only the variable domains can be tied to it; also called P056.021 EGFRvIII TCB; parental EGFRvIII TCB
# B9: CD3 opt ヒトIgG1 PGLALA (optimized CD3 binder, human IgG1 with P329G L234A L235A) (antibody, V domains shown)
# VH: EVQLLESGGGLVQPGGSLRLSCAASGFQFSSYAMNWVRQAPGKGLEWVSRIRSKYNNYATYYADSVKGRFTISRDDSKNTLYLQMNSLRAEDTAVYYCVRHTTFPSSYVSYYGYWGQGTLVTVSS
# VL: QAVVTQEPSLTVSPGGTVTLTCGSSTGAVTTSNYANWVQEKPGQAFRGLIGGTNKRAPGTPARFSGSLLGGKAALTLSGAQPEDEAEYYCALWYSNLWVFGGGTKLTVLR
# notes: also called CD3opt; CD3opt IgG PGLALA
# How the values were obtained:
# [1] = molecular target: T1, Recombinant human CD3 antigen: heterodimer of CD3 delta and CD3 epsilon ectodomains fused to human Fc domain … (human); assay: SPR (Biacore T200), TCB captured at 20 nM by anti-PGLALA antibody, CD3 antigen as analyte, 1:1 Langmuir fit
# T1 construct: also called 組換えCD3; ヒトCD3
# [2] = molecular target: T2, Recombinant cynomolgus CD3 antigen: heterodimer of cynomolgus CD3 delta and CD3 epsilon ectodomains fused to … (cynomolgus monkey); assay: as above
# T2 construct: also called カニクイザルCD3
# [3] = molecular target: T3, EGFRvIII-ECD avi his (extracellular domain of human EGFRvIII fused to C-terminal Avi-tag and His-tag) (human); assay: SPR (Biacore T200), TCB (5 nM) captured by anti-Fc antibody, EGFRvIII-ECD avi his 3-fold dilution series as analyte, 1:1 Langmuir fit
# T3 construct: also called 組み換えEGFRvIII; EGFRvIII抗原
# [4] = molecular target: T1, Recombinant human CD3 antigen: …; assay: SPR (Biacore T200), TCB captured by anti-PGLALA antibody, CD3 antigen 12.35-3000 nM as analyte, 1:1 Langmuir fit
# [5] = molecular target: T2, Recombinant cynomolgus CD3 antigen: …; assay: as above
# [6] = molecular target: T4, Human TYRP1 extracellular domain (ECD), monomeric fusion to human Fc domain with knob-into-hole and PG LALA … (human, UniProt P01857 104-328 = IgG part); assay: SPR (Biacore T200), TYRP1 ECD-Fc captured by anti-PGLALA antibody, Fab 3-fold dilution series as analyte, 1:1 Langmuir fit
# T4 construct: also called ヒトTYRP1
# [7] = molecular target: T5, Cynomolgus TYRP1 extracellular domain (ECD), monomeric fusion to human Fc domain with knob-into-hole and PG … (cynomolgus monkey, UniProt P01857 104-328 = IgG part); assay: as above
# T5 construct: also called カニクイザルTYRP1
# [8] = molecular target: T6, Mouse TYRP1 extracellular domain (ECD), monomeric fusion to human Fc domain with knob-into-hole and PG LALA … (mouse, UniProt P01857 104-328 = IgG part); assay: as above
# T6 construct: also called マウスTYRP1
# [9] = molecular target: T7, Human EGFRvIII expressed on cells (CHO-EGFRvIII, DK-MG, U87MG-EGFRvIII) (human, UniProt P00533 298-1210); assay: flow cytometry on CHO-EGFRvIII and EGFRvIII-positive DK-MG cells
# T7 construct: also called EGFRvIII; huEGFRvIII
# [10] = molecular target: T7, Human EGFRvIII expressed on cells …; assay: SPR and flow cytometry on U87MG-EGFRvIII and MKN-45 cells, compared with the parental binder
# [11] = molecular target: T7, Human EGFRvIII expressed on cells …; assay: flow cytometry on CHO-EGFRvIII cells, TCB against the corresponding IgG
# [12] = molecular target: T1, Recombinant human CD3 antigen: …; assay: SPR (Biacore T200), antibody captured by anti-Fab, CD3 antigen 10 ug/ml, relative active concentration after 14 days of temperature stress
binder,measurement,setting,value
B1,Kd,[1],30 nM
same,Kd,[2],20 nM
same,Kd,[3],6 nM
B2,Kd,[4],50 nM
same,Kd,[5],20 nM
B3,Kd,[1],40 nM
same,Kd,[3],6 nM
B4,Kd,[4],50 nM
B5,Kd,[6],0.13 nM
same,Kd,[7],0.18 nM
same,Kd,[8],0.53 nM
B6,binding result,[9],binds
B7,binding result,[10],binds
B8,binding result,[11],binds
B9,binding result,[12],binds
